No end group written: not given here.
Legend:
Assay in all cases: Kinase Profiling Assay
Type in all cases: biochemical
Settings in all cases: peptide 100 μM
Src(T341M)(h) = biological target: T1, Src(T341M)(h) (Homo sapiens, UniProt P12931, T341M)
T1 construct: purchased Millipore
Method in brief: (§1)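 Scintillation counting quantifies radiolabeled, positively charged substrate retained on a negatively charged filter after kinase reaction with labeled ATP; inhibitor peptide present.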

RIPK2(h) = RIPK2(h) (Homo sapiens, UniProt O43353)
Chain of RIPK2(h) (O43353 whole entry): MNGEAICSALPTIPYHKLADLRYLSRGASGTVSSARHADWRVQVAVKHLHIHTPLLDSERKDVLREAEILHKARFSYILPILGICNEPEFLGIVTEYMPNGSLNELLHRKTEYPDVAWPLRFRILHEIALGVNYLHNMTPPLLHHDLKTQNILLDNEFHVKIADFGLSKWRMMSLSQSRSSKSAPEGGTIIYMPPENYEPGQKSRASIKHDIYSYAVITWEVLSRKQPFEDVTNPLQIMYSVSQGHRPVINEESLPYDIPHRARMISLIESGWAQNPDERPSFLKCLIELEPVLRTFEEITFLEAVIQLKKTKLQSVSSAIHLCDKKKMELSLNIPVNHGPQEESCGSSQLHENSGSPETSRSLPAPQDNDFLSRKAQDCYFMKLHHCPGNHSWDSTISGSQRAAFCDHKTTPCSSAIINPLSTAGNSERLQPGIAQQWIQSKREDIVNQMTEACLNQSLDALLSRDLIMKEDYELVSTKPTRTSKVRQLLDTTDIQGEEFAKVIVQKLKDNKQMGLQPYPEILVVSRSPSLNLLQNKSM
Method in brief: as §1

FGFR4(h) = FGFR4(h) (Homo sapiens, UniProt P22455)
Method in brief: as §1

TAO1(h) = biological target: T2, TAO1(h) (Homo sapiens, UniProt Q7L7X3)
T2 construct: purchased Millipore
T2 sequence (Q7L7X3 1-1001): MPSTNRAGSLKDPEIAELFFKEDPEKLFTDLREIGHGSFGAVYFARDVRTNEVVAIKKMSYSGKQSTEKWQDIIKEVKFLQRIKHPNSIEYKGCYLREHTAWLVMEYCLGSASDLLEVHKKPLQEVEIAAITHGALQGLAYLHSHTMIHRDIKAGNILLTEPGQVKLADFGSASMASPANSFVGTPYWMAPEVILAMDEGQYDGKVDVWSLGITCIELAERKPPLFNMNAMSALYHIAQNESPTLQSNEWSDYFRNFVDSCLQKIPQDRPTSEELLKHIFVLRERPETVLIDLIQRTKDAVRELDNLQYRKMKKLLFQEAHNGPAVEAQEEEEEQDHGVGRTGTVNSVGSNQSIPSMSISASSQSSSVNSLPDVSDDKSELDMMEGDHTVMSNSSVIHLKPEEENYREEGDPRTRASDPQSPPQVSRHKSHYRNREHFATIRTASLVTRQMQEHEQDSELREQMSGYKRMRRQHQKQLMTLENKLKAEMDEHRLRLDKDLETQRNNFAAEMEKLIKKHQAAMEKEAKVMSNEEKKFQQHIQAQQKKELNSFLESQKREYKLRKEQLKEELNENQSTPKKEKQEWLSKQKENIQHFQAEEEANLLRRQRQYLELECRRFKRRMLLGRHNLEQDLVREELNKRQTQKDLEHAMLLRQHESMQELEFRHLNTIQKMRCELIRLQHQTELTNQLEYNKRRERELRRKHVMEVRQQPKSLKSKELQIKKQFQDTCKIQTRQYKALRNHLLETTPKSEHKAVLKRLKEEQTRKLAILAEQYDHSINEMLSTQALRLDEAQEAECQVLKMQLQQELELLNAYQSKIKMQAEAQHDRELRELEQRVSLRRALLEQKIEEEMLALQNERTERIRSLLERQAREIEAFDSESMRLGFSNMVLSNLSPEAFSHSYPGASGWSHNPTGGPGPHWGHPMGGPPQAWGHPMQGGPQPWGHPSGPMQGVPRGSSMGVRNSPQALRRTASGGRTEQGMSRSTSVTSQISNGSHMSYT
Method in brief: as §1

CaMKIIγ(h) = CaMKIIγ(h) (Homo sapiens, UniProt Q13555)
Chain of CaMKIIγ(h) (Q13555 whole entry): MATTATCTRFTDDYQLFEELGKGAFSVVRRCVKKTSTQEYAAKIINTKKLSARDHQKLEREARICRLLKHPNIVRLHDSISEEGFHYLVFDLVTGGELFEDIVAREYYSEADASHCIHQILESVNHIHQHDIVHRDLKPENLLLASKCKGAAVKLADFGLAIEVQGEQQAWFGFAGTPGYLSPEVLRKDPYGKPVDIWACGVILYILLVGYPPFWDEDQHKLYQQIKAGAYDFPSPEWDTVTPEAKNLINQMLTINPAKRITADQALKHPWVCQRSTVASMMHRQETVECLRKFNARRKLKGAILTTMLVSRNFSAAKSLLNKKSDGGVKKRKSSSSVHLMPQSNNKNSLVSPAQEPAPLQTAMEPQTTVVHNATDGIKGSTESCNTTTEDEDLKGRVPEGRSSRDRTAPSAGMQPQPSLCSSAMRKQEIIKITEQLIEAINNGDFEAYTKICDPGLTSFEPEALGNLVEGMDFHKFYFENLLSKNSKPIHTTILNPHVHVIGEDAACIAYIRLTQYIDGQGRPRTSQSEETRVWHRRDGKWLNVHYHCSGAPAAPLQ
Method in brief: as §1

EphA1(h) = biological target: T3, EphA1(h) (Homo sapiens, UniProt P21709)
T3 sequence (P21709 26-976): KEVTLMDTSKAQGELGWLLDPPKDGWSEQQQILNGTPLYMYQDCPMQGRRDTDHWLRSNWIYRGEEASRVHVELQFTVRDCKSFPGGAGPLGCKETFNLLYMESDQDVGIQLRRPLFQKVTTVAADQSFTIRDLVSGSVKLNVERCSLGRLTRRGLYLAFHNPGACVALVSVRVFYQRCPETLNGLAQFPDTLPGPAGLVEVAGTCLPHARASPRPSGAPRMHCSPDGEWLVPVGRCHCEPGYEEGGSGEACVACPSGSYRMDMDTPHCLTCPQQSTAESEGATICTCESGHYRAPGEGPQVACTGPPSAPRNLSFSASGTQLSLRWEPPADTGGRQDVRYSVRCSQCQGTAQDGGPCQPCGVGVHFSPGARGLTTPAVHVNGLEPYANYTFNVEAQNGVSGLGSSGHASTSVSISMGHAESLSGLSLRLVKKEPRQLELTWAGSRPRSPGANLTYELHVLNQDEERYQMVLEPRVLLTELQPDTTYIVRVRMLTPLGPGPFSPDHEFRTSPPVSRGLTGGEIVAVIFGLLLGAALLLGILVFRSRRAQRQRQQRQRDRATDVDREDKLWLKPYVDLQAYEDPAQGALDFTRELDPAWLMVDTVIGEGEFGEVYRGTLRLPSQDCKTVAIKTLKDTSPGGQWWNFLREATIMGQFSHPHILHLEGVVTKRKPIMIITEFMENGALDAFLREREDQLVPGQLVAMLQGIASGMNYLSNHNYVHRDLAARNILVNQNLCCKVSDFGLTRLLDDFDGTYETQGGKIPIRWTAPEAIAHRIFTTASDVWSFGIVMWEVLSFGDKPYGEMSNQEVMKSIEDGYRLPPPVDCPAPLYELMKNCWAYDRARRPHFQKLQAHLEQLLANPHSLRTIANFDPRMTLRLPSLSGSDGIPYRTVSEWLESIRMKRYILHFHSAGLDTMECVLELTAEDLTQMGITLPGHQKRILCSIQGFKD
Method in brief: as §1

SAPK2a(T106M)(h) = biological target: T4, SAPK2a(T106M)(h) (Homo sapiens, UniProt Q16539, T106M)
T4 construct: purchased Millipore
T4 sequence (Q16539 whole entry T106M): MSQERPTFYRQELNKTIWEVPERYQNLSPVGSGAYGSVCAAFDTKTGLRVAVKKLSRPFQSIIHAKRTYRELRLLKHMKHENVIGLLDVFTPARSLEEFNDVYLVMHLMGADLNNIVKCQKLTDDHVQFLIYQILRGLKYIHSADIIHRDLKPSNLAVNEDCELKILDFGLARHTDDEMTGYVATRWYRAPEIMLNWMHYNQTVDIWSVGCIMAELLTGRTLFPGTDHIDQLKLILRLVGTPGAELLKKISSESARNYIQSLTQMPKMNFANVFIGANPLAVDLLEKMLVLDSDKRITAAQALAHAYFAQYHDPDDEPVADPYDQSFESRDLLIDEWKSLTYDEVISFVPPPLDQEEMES
Method in brief: as §1

ACK1(h) = ACK1(h) (Homo sapiens, UniProt Q07912)
Chain of ACK1(h) (Q07912 whole entry): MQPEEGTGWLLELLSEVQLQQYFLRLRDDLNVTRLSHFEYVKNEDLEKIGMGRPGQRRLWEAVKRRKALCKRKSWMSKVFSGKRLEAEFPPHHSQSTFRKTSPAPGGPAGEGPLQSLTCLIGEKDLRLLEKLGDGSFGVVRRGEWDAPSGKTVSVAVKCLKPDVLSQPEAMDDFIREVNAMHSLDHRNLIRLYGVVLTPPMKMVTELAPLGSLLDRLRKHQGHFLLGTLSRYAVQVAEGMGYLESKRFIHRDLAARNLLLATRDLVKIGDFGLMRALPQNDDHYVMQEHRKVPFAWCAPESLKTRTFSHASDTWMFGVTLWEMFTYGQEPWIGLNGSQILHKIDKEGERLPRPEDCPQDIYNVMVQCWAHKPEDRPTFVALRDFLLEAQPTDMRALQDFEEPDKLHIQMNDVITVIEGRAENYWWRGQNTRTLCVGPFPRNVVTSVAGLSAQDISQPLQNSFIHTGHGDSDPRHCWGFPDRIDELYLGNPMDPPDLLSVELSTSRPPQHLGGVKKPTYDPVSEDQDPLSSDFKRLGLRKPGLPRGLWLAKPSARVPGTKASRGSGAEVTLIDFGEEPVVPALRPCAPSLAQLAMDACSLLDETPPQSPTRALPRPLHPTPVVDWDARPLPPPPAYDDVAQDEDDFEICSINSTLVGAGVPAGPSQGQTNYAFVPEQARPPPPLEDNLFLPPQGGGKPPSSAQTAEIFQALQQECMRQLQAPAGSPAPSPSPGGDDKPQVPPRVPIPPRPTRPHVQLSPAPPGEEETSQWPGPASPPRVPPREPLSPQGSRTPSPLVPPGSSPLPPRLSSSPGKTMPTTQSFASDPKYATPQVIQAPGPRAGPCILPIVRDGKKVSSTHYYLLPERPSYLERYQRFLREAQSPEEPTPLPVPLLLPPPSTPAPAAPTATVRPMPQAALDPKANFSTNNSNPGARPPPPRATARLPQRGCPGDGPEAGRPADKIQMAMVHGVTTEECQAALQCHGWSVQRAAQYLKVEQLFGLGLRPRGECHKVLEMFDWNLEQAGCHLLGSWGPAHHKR
Method in brief: as §1

SRPK1(h) = biological target: T5, SRPK1(h) (Homo sapiens, UniProt Q96SB4)
T5 construct: purchased Millipore
T5 sequence (Q96SB4 whole entry): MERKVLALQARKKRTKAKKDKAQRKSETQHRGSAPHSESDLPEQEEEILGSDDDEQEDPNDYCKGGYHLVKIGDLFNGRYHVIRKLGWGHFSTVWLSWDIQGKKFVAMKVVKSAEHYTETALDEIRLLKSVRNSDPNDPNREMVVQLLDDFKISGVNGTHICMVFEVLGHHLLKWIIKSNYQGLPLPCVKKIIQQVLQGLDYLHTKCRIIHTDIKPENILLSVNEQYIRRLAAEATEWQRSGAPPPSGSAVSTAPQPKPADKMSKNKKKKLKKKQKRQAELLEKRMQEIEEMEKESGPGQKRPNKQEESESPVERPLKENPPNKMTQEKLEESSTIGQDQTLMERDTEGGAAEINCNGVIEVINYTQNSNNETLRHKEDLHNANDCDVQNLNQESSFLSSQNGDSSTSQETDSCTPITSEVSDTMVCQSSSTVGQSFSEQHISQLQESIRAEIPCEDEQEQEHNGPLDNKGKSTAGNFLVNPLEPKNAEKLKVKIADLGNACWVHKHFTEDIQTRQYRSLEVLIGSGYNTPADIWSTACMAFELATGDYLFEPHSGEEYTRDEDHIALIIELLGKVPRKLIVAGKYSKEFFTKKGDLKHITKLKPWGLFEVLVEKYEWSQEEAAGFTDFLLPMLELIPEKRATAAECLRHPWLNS
Method in brief: as §1

Fyn(h) = Fyn(h) (Homo sapiens, UniProt P06241)
Chain of Fyn(h) (P06241 whole entry): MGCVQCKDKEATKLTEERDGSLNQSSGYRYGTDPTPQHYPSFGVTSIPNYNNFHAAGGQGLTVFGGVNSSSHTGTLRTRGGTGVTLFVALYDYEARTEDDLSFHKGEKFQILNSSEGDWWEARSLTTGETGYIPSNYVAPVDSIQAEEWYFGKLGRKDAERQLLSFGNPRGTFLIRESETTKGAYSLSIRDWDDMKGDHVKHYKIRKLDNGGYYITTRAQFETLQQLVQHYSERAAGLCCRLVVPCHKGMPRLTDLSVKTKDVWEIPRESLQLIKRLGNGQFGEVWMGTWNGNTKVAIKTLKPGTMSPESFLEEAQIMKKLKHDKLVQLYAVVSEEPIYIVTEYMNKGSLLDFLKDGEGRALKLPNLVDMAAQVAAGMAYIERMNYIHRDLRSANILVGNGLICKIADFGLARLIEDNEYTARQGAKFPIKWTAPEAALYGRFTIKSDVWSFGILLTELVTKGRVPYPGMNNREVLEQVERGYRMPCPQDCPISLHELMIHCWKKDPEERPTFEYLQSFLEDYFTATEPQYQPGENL
Method in brief: as §1

DAPK2(h) = DAPK2(h) (Homo sapiens, UniProt Q9UIK4)
Chain of DAPK2(h) (Q9UIK4 whole entry): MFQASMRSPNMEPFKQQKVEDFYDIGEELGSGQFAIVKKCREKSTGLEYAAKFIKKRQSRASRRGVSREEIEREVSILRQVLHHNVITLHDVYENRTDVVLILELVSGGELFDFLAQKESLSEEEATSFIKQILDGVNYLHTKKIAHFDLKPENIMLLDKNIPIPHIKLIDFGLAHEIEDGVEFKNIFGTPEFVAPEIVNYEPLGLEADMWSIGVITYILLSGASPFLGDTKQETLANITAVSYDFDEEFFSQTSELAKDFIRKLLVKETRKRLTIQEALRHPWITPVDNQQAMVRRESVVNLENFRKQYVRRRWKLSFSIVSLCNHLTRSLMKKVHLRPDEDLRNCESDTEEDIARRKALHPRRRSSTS
Method in brief: as §1

Yes(h) = Yes(h) (Homo sapiens, UniProt P07947)
Chain of Yes(h) (P07947 whole entry): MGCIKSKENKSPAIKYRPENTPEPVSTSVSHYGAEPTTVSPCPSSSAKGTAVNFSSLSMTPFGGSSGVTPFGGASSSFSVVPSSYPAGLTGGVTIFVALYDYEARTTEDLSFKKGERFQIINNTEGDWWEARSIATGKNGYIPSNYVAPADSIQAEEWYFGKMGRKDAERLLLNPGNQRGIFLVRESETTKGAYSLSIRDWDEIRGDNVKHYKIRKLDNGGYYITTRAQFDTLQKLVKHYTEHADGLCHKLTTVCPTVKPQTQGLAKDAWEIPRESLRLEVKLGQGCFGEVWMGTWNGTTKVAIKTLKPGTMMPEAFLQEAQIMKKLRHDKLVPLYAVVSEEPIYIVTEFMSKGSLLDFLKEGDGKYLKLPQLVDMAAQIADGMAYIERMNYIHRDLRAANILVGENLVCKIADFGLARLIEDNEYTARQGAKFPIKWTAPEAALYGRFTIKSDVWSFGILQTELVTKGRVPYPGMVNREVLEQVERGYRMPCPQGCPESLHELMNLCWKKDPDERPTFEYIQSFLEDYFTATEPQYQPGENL
Method in brief: as §1

| Sequence | % activity (Src(T341M)(h)) | % activity (RIPK2(h)) | % activity (FGFR4(h)) | % activity (TAO1(h)) | % activity (CaMKIIγ(h)) | % activity (EphA1(h)) | % activity (SAPK2a(T106M)(h)) | % activity (ACK1(h)) | % activity (SRPK1(h)) | % activity (Fyn(h)) | % activity (DAPK2(h)) | % activity (Yes(h)) |
| --- | --- | --- | --- | --- | --- | --- | --- | --- | --- | --- | --- | --- |
| HRRIKAWLKKIKALARQLGVAA (Mammal) [MMI-0500] | 59% | 30% | 3% | 24% | 3% | 40% | 32% | 64% | 80% | 83% | 3% |  |
| YARAAARQARAKALNRQLGVA (Mammal) [MMI-0200] | 56% | 98% | 75% |  | 94% |  | 100% | 97% | 93% | 75% | 92% | 93% |
| YARAAARQARAKALARQLGVAA [MMI-0100] |  |  |  | 99% |  |  | 101% |  | 69% |  |  |  |
| FAKLAARLYRKALARQLGVAA [MMI-0300] | 70% | 97% | 28% | 82% | 5% | 73% | 97% |  | 90% | 74% | 32% | 67% |
| KAFAKLAARLYRKALARQLGVAA [MMI-0400] | 76% | 98% | 19% | 73% | 3% | 61% | 99% | 95% | 96% | 54% | 16% | 14% |
